Experiment [1] has as its target T1, human A-beta(1-40) peptide, monomeric (BAM) (human, biotin at the C-terminus in capture ELISA, SPR and TR-FRET; not biotinylated where coated directly (Example 7)). Briefly: cell-based or functional assay.
In experiment [2] the target is T1, human A-beta(1-40) peptide, monomeric …. Briefly: BAM ELISA. (In general: ELISA stands for enzyme-linked immunosorbent assay.)
Experiment [3] shares this target. Kind of experiment: SPR on captured biotinylated A-beta(1-40).
The target is the same in experiment [4]. Briefly: BAM ELISA. This is another data set of the same source.
The target is the same in experiment [5]. Briefly: 42D4 TR-FRET assay (labelled ABII42D4). For orientation: TR-FRET usually uses a lanthanide donor and a delayed reading to cut background.
Experiment [6] addresses T2, aggregated A-beta(1-40) peptide (BAA) (human).
T2 construct: also called A-beta peptide aggregates
Kind of experiment: BAA ELISA.

Experiment [7] concerns the target T1, human A-beta(1-40) peptide, monomeric …. Briefly: SPR, captured C-terminally biotinylated A-beta(1-40).
Experiment [8] has the same target. Briefly: ABII050 TR-FRET competition assay.
The target is the same in experiment [9]. Kind of experiment: TR-FRET competition, labelled ABII60A10.
Experiment [10] has the same target. Kind of experiment: TR-FRET competition.
Experiment [11] concerns the target T2, aggregated A-beta(1-40) peptide (BAA). Briefly: BAA ELISA. The source holds these as a separate data set.
The target in experiment [12] is T1, human A-beta(1-40) peptide, monomeric …. Kind of experiment: 60A10 TR-FRET assay (labelled ABII60A10).
For experiment [13] the target is unchanged. Briefly: ABII002 TR-FRET competition assay.
The next experiment deals with T3, A-beta(1-28) peptide (human).
T3 construct: Anaspec peptide, solution antigen in KinExA
T3 sequence (peptide, as listed by the source): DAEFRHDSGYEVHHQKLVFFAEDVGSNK
Kind of experiment: KinExA, A-beta(1-28) in solution; PEGylated ABII322.

Experiment [14] deals with T4, pGlu-A-beta(1-28), C-terminally biotinylated (human, pyroglutamate formed from the glutamate at position 3 (N-terminus); biotin at the C-terminus).
T4 construct: printed as pGlu-A-beta(1-28), while the text says that the first two N-terminal residues are missing; range 3-28 is my reading; also called pyroglutamyl-Abeta
T4 sequence (peptide, as listed by the source): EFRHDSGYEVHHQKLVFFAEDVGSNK
Kind of experiment: SPR on captured C-terminally biotinylated pGlu-A-beta(1-28), 1:1 model.
Excerpt: Association and dissociation curves can be fitted using a 1:1 interaction model and an accurate KD value can be determined.

Experiment [15] has as its target T1, human A-beta(1-40) peptide, monomeric …. Kind of experiment: TR-FRET competition; labelled competitor not given.
The target is the same in experiment [16]. Briefly: ELISA, peptide coated at 2 µg/ml, anti-myc detection.
Experiment [17] addresses T5, mouse A-beta(1-40) peptide (mouse).
T5 construct: Bachem peptide coated directly; also called rodent A-beta(1-40)
T5 peptide: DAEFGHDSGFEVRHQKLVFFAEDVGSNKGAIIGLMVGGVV
Described as above.

In experiment [18] the target is T5, mouse A-beta(1-40) peptide. Kind of experiment: ELISA EC50.
For the next experiment, the target named is T6, soluble APP-alpha (UniProt P05067-4 18-612, limits assumed, biotinylated where used as labelled partner).
T6 construct: bought; also called sAPPalpha
T6 sequence (P05067 other isoform, or with tags, fused parts or gaps limits assumed): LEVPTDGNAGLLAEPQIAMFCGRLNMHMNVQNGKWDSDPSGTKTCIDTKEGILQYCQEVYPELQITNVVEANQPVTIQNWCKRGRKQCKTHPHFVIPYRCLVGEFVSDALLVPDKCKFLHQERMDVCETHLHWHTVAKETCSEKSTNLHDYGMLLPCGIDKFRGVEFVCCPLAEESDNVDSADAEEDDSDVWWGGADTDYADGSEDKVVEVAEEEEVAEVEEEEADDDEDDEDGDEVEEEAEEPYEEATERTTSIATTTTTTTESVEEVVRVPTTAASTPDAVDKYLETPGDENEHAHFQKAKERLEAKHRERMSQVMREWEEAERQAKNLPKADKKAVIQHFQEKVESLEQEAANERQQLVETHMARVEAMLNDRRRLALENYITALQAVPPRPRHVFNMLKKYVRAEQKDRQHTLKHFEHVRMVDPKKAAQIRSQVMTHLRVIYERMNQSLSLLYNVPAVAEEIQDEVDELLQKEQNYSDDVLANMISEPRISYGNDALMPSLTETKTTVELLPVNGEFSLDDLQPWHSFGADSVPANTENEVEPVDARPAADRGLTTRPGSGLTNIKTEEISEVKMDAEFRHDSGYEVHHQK
Briefly: TR-FRET: competition with labelled ABII320 for biotinylated sAPPalpha; non-labeled ABII035 as competitor; biotinylated sAPPalpha.

Experiment [19] deals with T7, human A-beta peptide (residues 1-24) (human).
T7 construct: used for co-crystallisation; also called A-beta(1-24)
T7 sequence (peptide, as listed by the source): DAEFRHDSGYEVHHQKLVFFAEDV
Briefly: crystal structure.
Description: The complex is concentrated by diafiltration to a concentration of 4 mg/ml. Crystallization trials are set up as sitting drop vapour diffusion experiments by mixing 200 nl of protein with 200 nl of reservoir solution against a reservoir volume of 100 μl. […] Data are collected at the beamline 6SA of the swiss light source at the Paul-Scherrer Institute in Villigen, Switzerland.

Experiment [20] has as its target T1, human A-beta(1-40) peptide, monomeric …. Briefly: TR-FRET competition, mean IC50.
Experiment [21] has the same target. Briefly: ELISA, format not stated.

Like-named read-outs stand apart in the source and are kept apart here.

Description for A-beta(1-28) peptide: The KinExA experiments are conducted with a KinExA 3000 and the KinExA Pro software (Sapidyne Instruments Inc., USA) at room temperature (ca. 21° C.). PBS with 0.02% NaN₃ is used as running buffer. For all experiments, antigen is serially diluted into PBS with 0.1% BSA and 0.02% NaN₃ having a constant VHH concentration. The mixtures of antigen and VHH are incubated for 24 h at room temperature prior to measurement. The flow rate of the samples and the labeling antibody for all experiments is 0.25 ml/min.
This antibody is used at a volume of 500 μl and a concentration of 0.5 μg/ml in PBS with 0.1% BSA and 0.02% NaN₃.
The equilibrium titration data are fit to a 1:1 binding model using KinExA Pro software Version 1.0.3 (Sapidyne Instruments Inc., USA). […] The sample volume is 5 ml each. […] The sample volume is 11 ml each.
Description for soluble APP-alpha: Two independent experiments are performed applying a dilution series of the competitor compounds.

B1: Fab fragment of monoclonal antibody m266 (Fab, V domains shown)
VH: EVKLVESGGGLVQPGGSLKLSCAVSGFTFSRYSMSWVRQTPEKRLELVAQINSVGNSTYYPDTVKGRFTISRDNAEYTLSLQMSGLRSDDTATYYCASGDYWGQGTTLTVSS
VL: DVVMTQTPLSLPVSLGDQASISCRSSQSLIYSDGNAYLHWFLQKPGQSPKLLIYKVSNRFSGVPDRFSGSGSGTDFTLKISRVETEDLGVYFCSQSTHVPWTFGGGTKLEIK
notes: also called Fab266; m266Fab
For orientation: EC50 means the concentration giving half of the maximal effect. Low values mean an effect from little substance, high ones a need for much substance. A word on the koff: it is a measure of how fast the partners let go of each other. A low value points to a long-lived complex. Broadly, the IC50 is the concentration that inhibits the measured activity by half. A higher IC50 goes with a need for much substance. By Kd is commonly meant the equilibrium constant for the complex coming apart. A low value points to a tighter complex. As for B1, the “Aggregation inhibition (% inhibition at 26 µM)” value in experiment [1] is 82%. For the same molecule, the EC50 in experiment [2], in experiment [4], in experiment [6] and in experiment [11] was 1.8 nM throughout. Also, the koff in experiment [3] was 4e-05 s⁻¹. Further, the IC50 in experiment [5] was greater than 1000 nM; in experiment [8], 0.52 nM; in [9], 0.52 nM; in experiment [10], 0.52 nM; in [12], 2.3 nM. The molecule also yielded a Kd in experiment [7] of 0.3 nM.

B2: ABII322-PEG40 (designed binder)
chain: VQLLESGGGLVQPGGSLRLSCAASGRTFNNYNMGWFRQAPGKGREFVAAVSRSGVSTYYADSVKGRFTISRDNSKNTVYLQMNSLRPEDTAVYYCAAAYRGTAINVRRSYSSWGQGTLVTVSSGGGSGGGGSGGGGCGGGGSGGGGSGGGEVQLLESGGGLVQPGGSLRLSCVHSGPTFRTDTMGWFRQAPGKGREFVAAVTWNSGRINYADSVKGRFTISRDNSKNTAYLQMNSLRPEDTAVYYCAAHRFVVGGNRVEDWRYWGQGTLVTVSS
modifications: PEG40 on the Cys at position 14 of the 27GS linker
notes: 059-27GSC-035; also called PEGylated ABII322 VHH construct; biparatopic PEGylated VHH ABII322
Turning to B2, the values for the IC50 in [8] and in experiment [13] were 0.17 nM and 0.14 nM, respectively. The figures for the Kd (with A-beta(1-28) peptide; in experiment [14]) were 0.0006 nM and 1 nM, respectively.

B3: ABII035 (VHH)
VHH: EVQLLESGGGLVQPGGSLRLSCVHSGPTFRTDTMGWFRQAPGKGREFVAAVTWNSGRINYADSVKGRFTISRDNSKNTAYLQMNSLRPEDTAVYYCAAHRFVVGGNRVEDWRYWGQGTLVTVSS
notes: humanized variant of ABII002
For B3, the “Aggregation inhibition (% inhibition at 26 µM)” value in experiment [1] came to 54%. Moreover, the IC50 in experiment [15] amounted to 4 nM; with soluble APP-alpha, 25.6 nM; in [13], 3.5 nM; in experiment [20], 4 nM. In addition, the EC50 in [16] was 2.5 nM; in [17] it was 5.7 nM. For the same molecule, the “fold difference mouse against human A-beta” value in [18] worked out at 2.2 fold. Moreover, the binding result in [19] is “binds”. In addition, in experiment [21], the “fold difference of EC50 against the 2D2 and 2G6 VHHs” value is greater than 50 fold.

(Values after US20120058118A1 (Boehringer Ingelheim, published 2012).)
